Source: paper PMC7224192, “MYC transcription activation mediated by OCT4 as a mechanism of resistance to 13-cisRA-mediated differentiation in neuroblastoma”

B1: Biotin-MYC-1209/-1166 WT (OBS1) (dsDNA)
DNA 1: CTGTGCATACATAATGCATAATACATGACTCCCCCCAACAAATGC
DNA 2: GCATTTGTTGGGGGGAGTCATGTATTATGCATTATGTATGCACAG
B2: Biotin-MYC-1173/-1145 WT (OBS2) (dsDNA)
DNA 1: ACAAATGCAATGGGAGTTTATTCATAAC
DNA 2: GTTATGAATAAACTCCCATTGCATTTGT
B3: Biotin-MYC-1209/-1140 WT (OBS1+OBS2) (dsDNA)
DNA 1: CTGTGCATACATAATGCATAATACATGACTCCCCCCAACAAATGCAATGGGAGTTTATTCATAACGCGCT
DNA 2: AGCGCGTTATGAATAAACTCCCATTGCATTTGTTGGGGGGAGTCATGTATTATGCATTATGTATGCACAG

Columns and labels:
OCT4 [1] = biological target: T1, OCT4 (human, UniProt Q01860 1-360); assay: EMSA; mono- and di-OCT4 complexes; 20 fmol probe; Panomics EMSA Gel Shift Kit per manufacturer; OCT4 0.5 mg as printed (likely ug), biotin probe 20 fmol; buffer, pH and temperature not stated; settings: protein: commercial; label: biotin at 5' end
T1 sequence (Q01860 whole entry): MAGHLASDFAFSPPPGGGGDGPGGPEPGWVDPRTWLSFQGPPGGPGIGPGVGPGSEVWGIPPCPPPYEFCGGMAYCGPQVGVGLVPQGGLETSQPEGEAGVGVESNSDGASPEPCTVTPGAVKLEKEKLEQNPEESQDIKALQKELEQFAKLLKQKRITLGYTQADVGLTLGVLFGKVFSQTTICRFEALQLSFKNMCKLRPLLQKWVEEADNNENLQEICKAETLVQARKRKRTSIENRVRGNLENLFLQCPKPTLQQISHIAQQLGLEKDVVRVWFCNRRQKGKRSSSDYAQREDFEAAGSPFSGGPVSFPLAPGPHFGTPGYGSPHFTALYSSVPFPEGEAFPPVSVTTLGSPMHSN

OCT4 [2] = biological target: T1, OCT4; assay: EMSA; mono-OCT4 complex; 20 fmol probe; Panomics EMSA Gel Shift Kit per manufacturer; OCT4 0.5 mg as printed (likely ug), biotin probe 20 fmol; buffer, pH and temperature not stated; settings: protein: commercial; label: biotin at 5' end

Row | Binder | binding result (OCT4 [1]) | binding result (OCT4 [2])
1 | B1 | binds | 
2 | B2 |  | binds
3 | B3 | binds | 
